Experimental findings from PMC5288196 are described below.

Test [1] has as its target integrins on CHO and CHO-C2 cells (Chinese hamster (endogenous in CHO)).
Test [2] deals with C2 isoform of CD46 on CHO-C2 cells (human).
Test [3] shares this target. The source holds these as a separate data set.
Test [4] has as its target adenovirus serotype 35 vector virions (human adenovirus serotype 35).
In test [5] the target is adenovirus serotype 43 virions (human adenovirus serotype 43).

Where only a bound is given, the exact number is not on record here.

Sequence of recombinant soluble human CD46 protein comprising the extracellular component of the receptor (P15529 35-343): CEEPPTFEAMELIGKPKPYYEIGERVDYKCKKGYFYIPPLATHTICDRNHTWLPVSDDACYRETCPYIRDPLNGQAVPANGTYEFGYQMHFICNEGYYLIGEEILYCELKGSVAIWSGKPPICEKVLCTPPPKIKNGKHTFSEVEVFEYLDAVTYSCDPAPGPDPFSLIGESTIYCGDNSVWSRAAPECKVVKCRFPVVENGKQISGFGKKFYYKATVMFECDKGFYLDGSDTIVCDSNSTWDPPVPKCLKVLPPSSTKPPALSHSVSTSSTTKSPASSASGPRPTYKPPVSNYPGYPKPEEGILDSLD

Take “adenovirus serotype 43 virions (complex)”: in test [1], the inhibition of Ad43TL transduction of CHO and CHO-C2 cells pre-treated on ice with EDTA (10 mM), virus attached on ice was above 80%; the inhibition of Ad43TL transduction of CHO and CHO-C2 cells pre-treated on ice with the RGD-containing peptide GRGDSP (2 mg/ml), virus attached on ice is above 80%.
Regarding “recombinant Ad35 fiber knob domain (domain or fragment)”, in test [2], the inhibition of Ad35TL transduction of CHO-C2 cells pre-incubated with the Ad35 knob (Fluc activity); the pair blocked is m4 with m6 is 90% and the inhibition of Ad43TL transduction of CHO-C2 cells pre-incubated with the Ad35 knob (Fluc activity); the pair blocked is m3 with m6 was found to be 45%.
Consider “recombinant Ad43 fiber knob protein (domain or fragment)”, for which, in test [3], the inhibition of Ad43TL infection of CHO-C2 cells pre-incubated with the Ad43 knob at 100 μg/ml (no inhibition; the text prints 100 mg/ml) and 1 mg/ml; the pair blocked is m3 with m6 amounted to 55%.
“recombinant soluble human CD46 protein comprising the extracellular component of the receptor (from UniProt P15529 35-343) (domain or fragment)” had an inhibition of CHO-C2 transduction by Ad35TL pre-incubated with sCD46 (Fluc activity); the pair blocked is m4 with m6 in test [4] of 92%. Besides, the inhibition of CHO-C2 transduction by Ad43TL pre-incubated with sCD46 (Fluc activity); the pair blocked is m3 with m6 in test [5] worked out at 66%.
